Assay results reported in patent US20080274117A1.

Target: DBD-TSSK2 (myc tagged): human TSSK2 ORF fused with the Gal4 DNA-binding domain (pGBK-TSSK2) (human)
Experiment: cell-based or functional assay

## TSKS deletion mutant lacking the carboxyl terminus and second coiled-coil region, fused with the Gal4 activation domain (pGAD) (from UniProt P04386 768-881)
  alpha-galactosidase activity as percentage of full length TSKS (% reduction against full length TSKS): 75

## TSKS deletion mutant lacking the first 48 amino acids, fused with the Gal4 activation domain (pGAD) (from UniProt Q9UJT2 49-592)
  alpha-galactosidase activity as percentage of full length TSKS (% of full length TSKS): 5
